# Experimental data published in patent publication US8658372.
# Target: botulinum toxoid A (UniProt P0DPI0)
# Experiment: Luminex AMP-capture assay with antibody tracers
# Chain of botulinum toxoid A (P0DPI0 2-1296): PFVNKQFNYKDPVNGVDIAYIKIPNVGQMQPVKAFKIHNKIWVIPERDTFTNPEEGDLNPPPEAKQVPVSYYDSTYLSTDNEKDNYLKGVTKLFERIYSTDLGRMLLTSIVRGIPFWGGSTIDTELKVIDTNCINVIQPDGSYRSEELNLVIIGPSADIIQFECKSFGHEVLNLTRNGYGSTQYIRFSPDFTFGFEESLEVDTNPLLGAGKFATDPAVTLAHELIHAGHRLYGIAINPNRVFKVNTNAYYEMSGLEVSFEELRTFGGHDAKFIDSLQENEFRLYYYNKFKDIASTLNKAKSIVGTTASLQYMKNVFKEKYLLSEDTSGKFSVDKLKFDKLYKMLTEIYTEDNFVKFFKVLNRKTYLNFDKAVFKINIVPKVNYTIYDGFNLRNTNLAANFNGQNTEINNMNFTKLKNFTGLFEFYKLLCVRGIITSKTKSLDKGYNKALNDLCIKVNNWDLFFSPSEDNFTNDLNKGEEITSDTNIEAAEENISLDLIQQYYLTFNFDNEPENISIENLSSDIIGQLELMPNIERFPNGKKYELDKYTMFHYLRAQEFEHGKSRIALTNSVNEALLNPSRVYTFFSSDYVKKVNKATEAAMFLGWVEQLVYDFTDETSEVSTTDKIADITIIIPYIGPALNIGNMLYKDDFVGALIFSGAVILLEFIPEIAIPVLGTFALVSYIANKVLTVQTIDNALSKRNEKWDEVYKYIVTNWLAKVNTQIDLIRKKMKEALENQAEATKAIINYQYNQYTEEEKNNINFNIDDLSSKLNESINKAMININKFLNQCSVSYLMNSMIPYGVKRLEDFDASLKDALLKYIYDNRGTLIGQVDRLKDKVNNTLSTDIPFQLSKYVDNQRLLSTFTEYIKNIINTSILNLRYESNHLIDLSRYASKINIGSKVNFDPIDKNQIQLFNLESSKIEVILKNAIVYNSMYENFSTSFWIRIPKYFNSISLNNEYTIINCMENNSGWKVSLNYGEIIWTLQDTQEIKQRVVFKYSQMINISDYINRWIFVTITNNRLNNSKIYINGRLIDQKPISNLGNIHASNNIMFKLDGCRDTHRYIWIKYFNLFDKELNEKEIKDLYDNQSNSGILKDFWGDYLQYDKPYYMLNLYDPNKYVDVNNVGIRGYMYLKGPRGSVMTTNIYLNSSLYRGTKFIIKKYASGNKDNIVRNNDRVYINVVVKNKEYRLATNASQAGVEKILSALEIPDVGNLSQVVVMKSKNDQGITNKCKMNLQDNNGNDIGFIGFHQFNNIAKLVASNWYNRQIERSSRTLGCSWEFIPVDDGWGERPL
substance,measurement,value
AMP-derivatized Luminex beads,lowest detectable concentration,1 µg/mL
